Experimental data published in publication PMC11551740.

Target: M.EcoGII (methyltransferase EcoGII) (Escherichia coli)
Assay: SEC; 50-100 ug protein on Superdex 200 Increase 10/300 GL, 0.75 ml/min, 20 mM HEPES (pH 7.0 in the methods, pH 7.4 in the legend), 250 mM NaCl; molecular weight estimated from a calibration curve of LMW markers

stoichiometry N: 2
Substance: M.EcoGII (methyltransferase EcoGII) (enzyme)
